Measurements published in the supplement of paper PMC7125110.
± gives the standard error. Variants at the floor of the assay were thinned out.

B1: glmS ribozyme (parent)
chain: AUAAAAGCGCCAGAACUACAGAAAUGUAGUUGACGAGGAGGAGGUUUAUCGAAUUUUCGGCGGAUGCCUCCAAA

Variants of: B1
Experiment: self-cleavage kobs at 2500 uM GlcN6P; higher = faster cleavage; RNA array
Conditions: with glucosamine-6-phosphate
In short: (§1)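 Sequenced MiSeq chips were the platform: E. coli RNA polymerase transcribed barcoded ribozyme variants on them in situ, and a hybridised Cy3 probe tracked these at 37 °C. After glucosamine-6-phosphate (40 μM to 10 mM) in HEPES/KCl/Mg(OAc)2 buffer was flowed in, tiles were imaged over ~14 h. Signals normalised to baseline and to non-cleaving reference variants were reduced to per-tile medians and fit to one- or two-exponential decays to obtain kobs. kcat and KM were derived through weighted Michaelis–Menten fits across concentrations.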
With AUAAAAGCGCCAGAACUACAGAAAUGUAGUUGACGUGGAGGAGGUUUUUCGAAUUCUCGGCGGAUGCCUCCAAA [A36U A48U U56C] the “self-cleavage kobs at 2500 uM GlcN6P” value was less than 1e-05 s⁻¹. In the case of AUAAAAGCGCCAGAACUACAGAAAUGUAGUUGACUAGGAGGUGGUUUAACGAUUUUUCGGCGGAUGCCUCCAAA [G35U A42U U49A A53U], the “self-cleavage kobs at 2500 uM GlcN6P” value is reported as less than 1e-05 s⁻¹. AUAAAAGCGCCAGAACUACAGAAAUGUAGUUGACGAGGGGGAGGUUUAUUGAAUAUUCGGCGGAUGCCUUCAAA [A39G C50U U55A C70U] was tested, and the “self-cleavage kobs at 2500 uM GlcN6P” value was 4.43e-05 ± 1.7e-05 s⁻¹. AUAAAAGCGCCAGAACUACAGAAAUGUAGUUGACGAGGCGGAGGUUUAUCGAAUUUUCAGCCGAUGCCUCCAAA [A39C G59A G62C] was tested, and the “self-cleavage kobs at 2500 uM GlcN6P” value was less than 1e-05 s⁻¹. AUAAAAGCGCCAGAACUACAGAAAUGUAGUUGACAAGGAGGAGGUUUAUCGAAUUUUCGGCGGAUGCCCCCAAA [G35A U69C] was tested, and the “self-cleavage kobs at 2500 uM GlcN6P” value was less than 1e-05 s⁻¹. In the case of AUAAAAGCGCCAGAACUACAGAAAUGUAGUUGACGAGUAGUAGGUUUAUCGAAUUUUCCGCGGAAGCCUCCAAA [G38U G41U G59C U65A], the “self-cleavage kobs at 2500 uM GlcN6P” value is reported as less than 1e-05 s⁻¹. AUAAAAGCGCCAGAACUACAGAAAUGUAGUUGACGCGGAGGAGGUUUAUCGAAUUUUCGGGGUAUGCAUCCAAA [A36C C61G G63U C68A] was tested, and the “self-cleavage kobs at 2500 uM GlcN6P” value was 0.000112 ± 3.9e-05 s⁻¹. AUAAAAGCGCCAGAACUACAGAAAUGUAGUUGACGAGAAGGAGGUUUAUGGGAUUUUCGGCGGAUGCCUCCAAA [G38A C50G A52G] was tested, and the “self-cleavage kobs at 2500 uM GlcN6P” value was 4.75e-05 ± 1.6e-05 s⁻¹. With AUAAAAGCGCCAGAACUACAGAAAUGUAGUUGACGAUCAGGAGGUUUAUCGAAUCUUCGGCGGAUGCCUCCAAA [G37U G38C U55C] the “self-cleavage kobs at 2500 uM GlcN6P” value was less than 1e-05 s⁻¹. With AUAAAAGCGCCAGAACUACAGAAAUGUAGUUGACGAGGGGGAGGUUUAUCGAAUUUUCGGCGGAUACCGCCAAA [A39G G66A U69G] the “self-cleavage kobs at 2500 uM GlcN6P” value was 3.43e-05 ± 1.3e-05 s⁻¹. In the case of AUAAAAGCGCCAGAACUACAGAAAUGUAGUUGACGAGGGGGAGGAUUAUCGAAUUUUCGGCGGUUGCCUCCAAA [A39G U45A A64U], the “self-cleavage kobs at 2500 uM GlcN6P” value is reported as 0.000381 ± 0.00012 s⁻¹. With AUAAAAGCGCCAGAACUACAGAAAUGUAGUUGACGAGGACGAGGUUUAUCGAAUUCUCGGCGGAUGCCUCAAAA [G40C U56C C71A] the “self-cleavage kobs at 2500 uM GlcN6P” value was 9.43e-05 ± 2.2e-05 s⁻¹. With AUAAAAGCGCCAGAACUACAGAAAUGUAGUUGACGAGGUGGAGGUUUAUCGAAUUUUCAGCGGCUGCCUCCAAA [A39U G59A A64C] the “self-cleavage kobs at 2500 uM GlcN6P” value was less than 1e-05 s⁻¹. For AUAAAAGCGCCAGAACUACAGAAAUGUAGUUGACCAGGAGGAGGUUUAUCGAGUUUUCGGCGGAUGCCUCUAAA [G35C A53G C71U], the “self-cleavage kobs at 2500 uM GlcN6P” value was less than 1e-05 s⁻¹. For AUAAAAGCGCCAGAACUACAGAAAUGUAGUUGACGCGGAGGAGGUUGAUCGGAUUUUCGCCGGAUGCCUCCAAA [A36C U47G A52G G60C], the “self-cleavage kobs at 2500 uM GlcN6P” value was less than 1e-05 s⁻¹. With AUAAAAGCGCCAGAACUACAGAAAUGUAGUUGACGAGAAGGAGGUUUAUCGAAUUGUCGGCGGAUGCCUCCAAA [G38A U56G] the “self-cleavage kobs at 2500 uM GlcN6P” value was less than 1e-05 s⁻¹. AUAAAAGCGCCAGAACUACAGAAAUGUAGUUGACGAGGCGGAGCUUUAUCGAAUUUUCGGCGGAUGACUCCAAA [A39C G44C C67A] was tested, and the “self-cleavage kobs at 2500 uM GlcN6P” value was 0.000176 ± 4.5e-05 s⁻¹. With AUAAAAGCGCCAGAACUACAGAAAUGUAGUUGAUGAGGACGAAGUUUAUCGAAUUUUCGGCGGAUGCCUCCAAA [C34U G40C G43A] the “self-cleavage kobs at 2500 uM GlcN6P” value was less than 1e-05 s⁻¹. For AUAAAAGCGCCAGAACUACAGAAAUGUAGUUGACGAUGAGGAGUUUUAUCGAAUUUUCGGCGGAUGCCUGCAAA [G37U G44U C70G], the “self-cleavage kobs at 2500 uM GlcN6P” value was less than 1e-05 s⁻¹. With AUAAAAGCGCCAGAACUACAGAAAUGUAGUUGACGAGCAGGAGGUUUAUCGAAUUAUCGGCGGAUGGGUCCAAA [G38C U56A C67G C68G] the “self-cleavage kobs at 2500 uM GlcN6P” value was 0.000115 ± 4.5e-05 s⁻¹. For AUAAAAGCGCCAGAACUACAGAAAUGUAGUUGACGAGGAGAUGGUUUAUCGAAUUUUCGGCAGAUGCCUCCAAA [G41A A42U G62A], the “self-cleavage kobs at 2500 uM GlcN6P” value was less than 1e-05 s⁻¹. AUAAAAGCGCCAGAACUACAGAAAUGUAGUUGACGAGGUGGAGGUUUAUCGAAUUUUCGGCGGACGCCUGCAAA [A39U U65C C70G] was tested, and the “self-cleavage kobs at 2500 uM GlcN6P” value was 0.000144 ± 3.7e-05 s⁻¹. With AUAAAAGCGCCAGAACUACAGAAAUGUAGUUGACGAGGUGGAGGUUUAUCGAAUUUUCGGCGGAUACGUCCAAA [A39U G66A C68G] the “self-cleavage kobs at 2500 uM GlcN6P” value was 4.5e-05 ± 2e-05 s⁻¹. In the case of AUAAAAGCGCCAGAACUACAGAAAUGUAGUUGACAAGGAGGAGGUUUAUGGAAGUUUCGGCGGCUGCCUCCAAA [G35A C50G U54G A64C], the “self-cleavage kobs at 2500 uM GlcN6P” value is reported as 7.23e-05 ± 2.7e-05 s⁻¹. With AUAAAAGCGCCAGAACUACAGAAAUGUAGUUGACUAGGAGGAGGUUUAUCGAAUUUUGGGCGGUUGCCUCCAAA [G35U C58G A64U] the “self-cleavage kobs at 2500 uM GlcN6P” value was less than 1e-05 s⁻¹. For AUAAAAGCGCCAGAACUACAGAAAUGUAGUUGACGAGGAUGAGGUUUUUCGUAUUUUCGGCGGAUGCCUCCAAA [G40U A48U A52U], the “self-cleavage kobs at 2500 uM GlcN6P” value was less than 1e-05 s⁻¹. In the case of AUAAAAGCGCCAGAACUACAGAAAUGUAGUUGACGACGAGGAGGUUUAUCGAAUUUUCGCCGGAUGCGUCCAAA [G37C G60C C68G], the “self-cleavage kobs at 2500 uM GlcN6P” value is reported as less than 1e-05 s⁻¹. With AUAAAAGCGCCAGAACUACAGAAAUGUAGUUGACGUGCAGGAGGUUUAUCGAAUUUUCGGCGGAUGCCCCCAAA [A36U G38C U69C] the “self-cleavage kobs at 2500 uM GlcN6P” value was less than 1e-05 s⁻¹. In the case of AUAAAAGCGCCAGAACUACAGAAAUGUAGUUGACGAGUAGGAGGUUUAGCGAAUUUACGGCGGAUGCCUGCAAA [G38U U49G U57A C70G], the “self-cleavage kobs at 2500 uM GlcN6P” value is reported as 6.84e-05 ± 3.3e-05 s⁻¹. For AUAAAAGCGCCAGAACUACAGAAAUGUAGUUGACGAGUAGGAGGUUUAUCGAAGUUUCGGCGGAUGCCUCAAAA [G38U U54G C71A], the “self-cleavage kobs at 2500 uM GlcN6P” value was less than 1e-05 s⁻¹. With AUAAAAGCGCCAGAACUACAGAAAUGUAGUUGACGAGAUGGAGGUUUAUCGAAUUUUCGGCGGCUGCCUCCAAA [G38A A39U A64C] the “self-cleavage kobs at 2500 uM GlcN6P” value was less than 1e-05 s⁻¹. For AUAAAAGCGCCAGAACUACAGAAAUGUAGUUGACCAGGAGAAGAUUUAUCGAAUUUUCGGCGGAUACCUCCAAA [G35C G41A G44A G66A], the “self-cleavage kobs at 2500 uM GlcN6P” value was less than 1e-05 s⁻¹. In the case of AUAAAAGCGCCAGAACUACAGAAAUGUAGUUGACCAGGAGGAGGUCUAUCGCACUUUCGGCGGAUGCCUCCAAA [G35C U46C A52C U54C], the “self-cleavage kobs at 2500 uM GlcN6P” value is reported as less than 1e-05 s⁻¹. For AUAAAAGCGCCAGAACUACAGAAAUGUAGUUGACGCGGAGUAUGUUUAUCCAAUUUUGGACGGAUGACUCCAAA [A36C G41U G43U G51C C58G G60A C67A], the “self-cleavage kobs at 2500 uM GlcN6P” value was less than 1e-05 s⁻¹.

Variants of: B1
Experiment: self-cleavage kobs at 10000 uM GlcN6P; higher = faster cleavage; RNA array
Conditions: with glucosamine-6-phosphate
In short: as §1
With AUAAAAGCGCCAGAACUACAGAAAUGUAGUUGACAAGGAGGAGGUUUAUCGAAUUUUCGGCGGAUGCCCCCAAA [G35A U69C] the “self-cleavage kobs at 10000 uM GlcN6P” value was less than 1e-05 s⁻¹. With AUAAAAGCGCCAGAACUACAGAAAUGUAGUUGACGAGGGGGAGGAUUAUCGAAUUUUCGGCGGUUGCCUCCAAA [A39G U45A A64U] the “self-cleavage kobs at 10000 uM GlcN6P” value was 0.000499 ± 0.00011 s⁻¹. In the case of AUAAAAGCGCCAGAACUACAGAAAUGUAGUUGACCAGGAGGAGGUUUAUCGAGUUUUCGGCGGAUGCCUCUAAA [G35C A53G C71U], the “self-cleavage kobs at 10000 uM GlcN6P” value is reported as less than 1e-05 s⁻¹.
